Test results as given in US20040126784.
Where a chain is given by its changes, count along the chain named. In names and notes the source's numbering stands.

B1: GST-CNK (wild type CNK fused to GST, produced in E. coli) (protein)
chain: MLAGLPTSDPGRLITDPRSGRTYLKGRLLGKGGFARCYEATDTETGSAYAVKVIPQSRVAKPHQREKILNEIELHRDLQHRHIVRFSHHFEDADNIYIFLELCSRKSLAHIWKARHTLLEPEVRYYLRQILSGLKYLHQRGILHRDLKLGNFFITENMELKVGDFGLAARLEPPEQRKKTICGTPNYVAPEVLLRQGHGPEADVWSLGCVMYTLLCGSPPFETADLKETYRCIKQVHYTLPASLSLPARQLLAAILRASPRDRPSIDQILRHDFFTKGYTPDRLPISSCVTVPDLTPPNPARSLFAKVTKSLFGRKKKSKNHAQERDEVSGLVSGLMRTSVGHQDARPEAPAASGPAPVSLVETAPEDSSPRGTLASSGDGFEEGLTVATVVESALCALRNCIAFMPPAEQNPAPLAQPEPLVWVSKWVDYSNKFGFGYQLSSRRVAVLFNDGTHMALSANRKTVHYNPTSTKHFSFSVGAVPRALQPQLGILRYFASYMEQHLMKGGDLPSVEEVEVPAPPLLLQWVKTDQALLMLFSDGTVQVNFYGDHTKLILSGWEPLLVTFVARNRSACTYLASHLRQLGCSPDLRQRLRYALRLLRDRSPA
B2: GST-CNK D146A mutant (protein)
chain: B1 chain with D146A

What was measured:
[1] = biological target: maltose binding protein (MBP)
[2] = biological target: p53, P04637
p53, P04637, sequence (P04637 whole entry, looked up): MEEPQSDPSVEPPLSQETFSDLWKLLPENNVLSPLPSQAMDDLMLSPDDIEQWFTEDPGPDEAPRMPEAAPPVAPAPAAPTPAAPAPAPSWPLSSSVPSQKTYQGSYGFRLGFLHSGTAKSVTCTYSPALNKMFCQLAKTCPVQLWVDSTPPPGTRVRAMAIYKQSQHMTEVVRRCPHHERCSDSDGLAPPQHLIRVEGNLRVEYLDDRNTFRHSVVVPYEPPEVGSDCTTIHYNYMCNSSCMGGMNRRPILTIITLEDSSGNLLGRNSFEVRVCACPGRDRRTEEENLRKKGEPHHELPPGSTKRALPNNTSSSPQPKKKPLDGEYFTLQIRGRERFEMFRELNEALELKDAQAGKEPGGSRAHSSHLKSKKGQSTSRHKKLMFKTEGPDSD

Protein | kinase activity (32P-ATP kinase reaction) [1] | kinase activity (32P-ATP kinase reaction) [2]
B1 | Wild type GST-CNK phosphorylated p53, maltose binding protein (MBP) and also exhibited autophosphorylation activity. | Wild type GST-CNK phosphorylated p53, maltose binding protein (MBP) and also exhibited autophosphorylation activity.
B2 | The GST-CNK D146A mutant did not exhibit kinase activity. | The GST-CNK D146A mutant did not exhibit kinase activity.
